These results are taken from patent US20240270826A1 (NATIONAL RESEARCH COUNCIL OF CANADA, published 2024).

For orientation: IC50 means the concentration at which inhibition is half-maximal. The low end stands for higher potency, the high end for lower potency. What is called IC99 is the point of the concentration-response curve where the effect stands at 99%. One may read the EC50 as the concentration needed to bring the measured effect to its halfway point. Lower therefore signals an effect from little substance. In general, Kd refers to a measure of binding affinity in units of concentration. A high value points to lower affinity. By koff is commonly meant a measure of how fast the partners let go of each other. For orientation: kon means a measure of how fast the partners come together. High values mean faster complex formation, low ones slower complex formation.

Several values for one entry are separate records, joined by “and”; a condition that tells them apart may be missing. Identical values can stand only once.

The target of assay [1] is T1, Human SARS-CoV-2_Wuhan S (SmT1) (SARS-CoV-2 (Wuhan), UniProt P0DTC2 14-1208). Put plainly: flow cytometry SVNA, VHH-Fc vs biotin-S binding to Vero E6 ACE2. A general note: Flow cytometry measures light scatter and fluorescence of single cells or particles in a stream.
Assay [2] deals with T2, SARS-CoV-2 spike protein S on live virus, Wuhan (strain SARS-CoV-2/Canada/VIDO-01/2020) (SARS-CoV-2 (Wuhan), UniProt P0DTC2 14-1273). As to the kind of experiment: cell-based or functional assay.
The target in assay [3] is T2, SARS-CoV-2 spike protein S on live …. Put plainly: cell-based or functional assay. The source holds these as a separate data set.
For assay [4], the target named is T1, Human SARS-CoV-2_Wuhan S (SmT1). Put plainly: sandwich ELISA: biotin NRCoV2-02 VHH capture, antigen titrated, VHH-Fc detector. A general note: An ELISA detects its analyte on a solid surface through an enzyme-linked reagent.
In assay [5] the target is T3, SARS-CoV-2 S1-RBD (Wuhan) (SARS-CoV-2 (Wuhan), UniProt P0DTC2 319-541).
T3 construct: domain: S1-RBD
Described as above.

Assay [6] has as its target T4, SARS-CoV-2 S1 (aa16-685) (Wuhan) (SARS-CoV-2 (Wuhan), UniProt P0DTC2 16-685). The assay is described as above.
The target in assay [7] is T1, Human SARS-CoV-2_Wuhan S (SmT1). Described as above. This is another data set of the same source.
The target in assay [8] is T3, SARS-CoV-2 S1-RBD (Wuhan). The description is as above. This is another data set of the same source.
For assay [9], the target named is T4, SARS-CoV-2 S1 (aa16-685) (Wuhan). The assay is described as above. The source holds these as a separate data set.
In assay [10] the target is S1-Fc (SARS-CoV-2 S1 aa16-685, Wuhan, human IgG1 Fc) (SARS-CoV-2 (Wuhan); human, UniProt P0DTC2 16-685).
Assay [11] addresses T1, Human SARS-CoV-2_Wuhan S (SmT1). Put plainly: flow cytometry SVNA, VHH vs biotin-S binding to Vero E6 ACE2.
The target in assay [12] is T5, SARS-CoV-2 spike trimer S (Wuhan, SmT1) (SARS-CoV-2 Wuhan).
T5 construct: extracellular domain
Put plainly: SPR, antigen on chip. (In general: In SPR one partner is held on a chip, and binding of the other changes the refractive index at the surface.)

Assay [13] addresses T6, SARS-CoV-2 S1 (aa16-685) (Wuhan) (SARS-CoV-2 Wuhan, UniProt P0DTC2 16-685).
T6 construct: NRC; FLAG, 6xHis tags
As to the kind of experiment: SPR, antigen on chip.

Assay [14] deals with SARS-CoV-2 S1-RBD fused to human Fc (S1-RBD-Fc) (SARS-CoV-2 Wuhan; human). As to the kind of experiment: SPR, antigen on chip.
Assay [15] concerns the target T7, SARS-CoV-2 S2 (aa686-1208) (Wuhan) (SARS-CoV-2 Wuhan, UniProt P0DTC2 686-1208).
T7 construct: NRC; FLAG, 6xHis tags
As to the kind of experiment: SPR, antigen on chip.

Assay [16] addresses T7, SARS-CoV-2 S2 (aa686-1208) (Wuhan). As to the kind of experiment: SPR single-cycle kinetics, VHH over immobilized S2 [cont.].
The target in assay [17] is Human SARS-CoV-2_Wuhan S (SmT1) (SARS-CoV-2 (Wuhan), UniProt P0DTC2 14-1208). As to the kind of experiment: tandem SPR, immobilized S, orientation 1: VHH alone.
For assay [18], the target named is SARS-CoV-2 RBD (aa319-541) (Wuhan), monomeric (SARS-CoV-2 Wuhan, UniProt P0DTC2 319-541). Put plainly: SPR, monomeric RBD over captured VHH-Fc.

B1: NRCoV2-07 VHH-Fc (Fc fusion)
chain: QVQLVQSGGGLVQPGGSLRLSCAASGVTLDYYAIGWFRQAPGKEREAVSCISSNGRRNHYVASVRGRFTISRDNAKSTVYLQMNSLKPEDTAVYYCAAVQDVHGDNYYCTSPNEYNVWGQGTQVTVSS
notes: bivalent VHH-Fc
On to B1, for which the IC50 in assay [1] was 6.8 nM. Besides, the 99% effect concentration (IC99) in assay [1] is 98.9 nM. The molecule further had an Imax % in [1] of 89%. The “LVNA IC50” value in assay [2] was found to be 6.15 nM. The molecule also gave an MN100 in assay [3] of 1.25 nM. Further, the Limit of detection in assay [4] was determined as 1.4 ng/mL; in [5] it was 0.08 ng/mL; in assay [6], 0.46 ng/mL. Also, the figures for the SC50 in assay [7], in assay [8] and in assay [9] were 18 ng/mL, 0.7 ng/mL and 5 ng/mL, respectively.

B2: NRCoV2-07 VHH (VHH)
VHH: QVQLVQSGGGLVQPGGSLRLSCAASGVTLDYYAIGWFRQAPGKEREAVSCISSNGRRNHYVASVRGRFTISRDNAKSTVYLQMNSLKPEDTAVYYCAAVQDVHGDNYYCTSPNEYNVWGQGTQVTVSS
Turning to B2, in assay [10], the 50% effective concentration (EC50) was 1.1 nM and 1 nM. Besides, in [11], the concentration for half-maximal inhibition (IC50) turned out to be 7.5 nM, the IC99 worked out at 65.3 nM and the Imax % came out at 86%.

B3: NRCoV2-1d VHH-Fc (Fc fusion)
chain: EVQLVESGGGSVQPGGSLRLSCAASGSTLDYYAIGWFRQAPGKEREWVSSVSSSDGNTLYADSVKGRFTISRDNAKNTVYLQMNSLKAEDTAVYVCAADYSMRPFAVGRWHRDYEYWGQGTQVTVSS
notes: bivalent VHH-Fc
Take B3: in assay [1], the IC50 was 5.4 nM. The molecule further showed an IC99 in assay [1] of 42 nM. In [1], the Imax % is 89%. The “LVNA IC50” value in assay [2] came to 1.94 nM. For the same molecule, the MN100 in assay [3] came out at 0.25 nM. In addition, the figures for the Limit of detection in assay [4], in assay [5] and in assay [6] were 1.4 ng/mL, 0.15 ng/mL and 1.37 ng/mL, respectively. For the same molecule, the figures for the SC50 in [7], in assay [8] and in assay [9] were 25 ng/mL, 1.7 ng/mL and 16 ng/mL, respectively.

B4: NRCoV2-1d VHH (VHH)
VHH: EVQLVESGGGSVQPGGSLRLSCAASGSTLDYYAIGWFRQAPGKEREWVSSVSSSDGNTLYADSVKGRFTISRDNAKNTVYLQMNSLKAEDTAVYVCAADYSMRPFAVGRWHRDYEYWGQGTQVTVSS
Take B4: in assay [10], the EC50 was 1.1 nM and 1.3 nM. In [11], this molecule displayed an IC50 of 8.6 nM, an IC99 of 40.8 nM and an Imax % of 72%.

B5: NRCoV2-MRed04 VHH (VHH)
VHH: EVQLVESGGGLVQPGRSLRLSCAASGNSFSISTMGWFRQAPGKERELVASIWSDTTTSYADSVKGRFTISTDNTRTKVYLQMSSLNPEDTAVYYCAADRGFVVRGQYDYWGQGTQVTVSS
Consider B5, for which the results for the Kd in [12], in assay [13] and in assay [14] were 1.09 nM, 1.68 nM and 2.06 nM, respectively. The dissociation rate constant (koff) stood at 0.0015 s⁻¹ in assay [12], 0.00183 s⁻¹ in assay [13] and 0.00176 s⁻¹ in assay [14]. Moreover, the values for the association rate constant (kon) in assay [12], in assay [13] and in assay [14] were 1.39e+06 M⁻¹ s⁻¹, 1.09e+06 M⁻¹ s⁻¹ and 855000 M⁻¹ s⁻¹, respectively. Besides, the binding result in [15] is “no binding”.

B6: NRCoV2-SR03 VHH (VHH)
VHH: AVQLVDSGGGLVQAGGSLRLSCAASGSIFSNNHMGWYRQAPGKQRELVAAISSGGKTNYADFAKGRFTISRDNAKNMVYLQMNSLKPEDTAVYYCNRGGWEYRSSYYIMGPHWGQGTQVTVSS
With B6, the binding result in assay [16] is on record as “no binding (tested: 20 nM)”. Further, the “End 1st inj (RU)” value in assay [17] is 18.5 RU.

B7: NRCoV2-MRed05 VHH-Fc (Fc fusion)
chain: EVQLVESGGGLVQPGGSLRLSCAASGFTLDYYAIGWFRQAPGKEREGVSCISSSDGSTLYADSVKGRFTISRDNAKNTVYLQMNSLKPEDTAVYYCATGPQAYYSGSYYFQCPQAGMDYWGKGTQVTVSS
notes: bivalent
In [18], B7 returned a dissociation constant (Kd) of 0.763 nM, a koff of 0.000496 s⁻¹ and a kon of 650000 M⁻¹ s⁻¹.

B8: NRCoV2-11 VHH-Fc (Fc fusion)
chain: EVQLVSSGGGLVQPGGSLRLSCAASGSSLDSYSVSWFRQAPGKEREWISFISRYYSSTYYTDSVKGRFTTSRDGDQKTVHLQMNSLKPEDTAVYYCAARSRDFSSPFSATDTYTSWGQGTQVTVSS
notes: bivalent VHH-Fc
Take B8: the IC50 in assay [1] amounted to 9.7 nM. The IC99 in assay [1] came to 99.8 nM. The same molecule had an Imax % in assay [1] of 63%. The “LVNA IC50” value in assay [2] was 9.9 nM. The Limit of detection in assay [4] is 1.4 ng/mL; in assay [5] it was 0.08 ng/mL; in assay [6], 0.46 ng/mL. Besides, the SC50 amounted to 20 ng/mL in assay [7], 0.8 ng/mL in assay [8] and 6 ng/mL in [9].

B9: NRCoV2-11 VHH (VHH)
VHH: EVQLVSSGGGLVQPGGSLRLSCAASGSSLDSYSVSWFRQAPGKEREWISFISRYYSSTYYTDSVKGRFTTSRDGDQKTVHLQMNSLKPEDTAVYYCAARSRDFSSPFSATDTYTSWGQGTQVTVSS
In assay [10], B9 showed a concentration for a half-maximal effect (EC50) of 0.2 nM.

B10: NRCoV2-02 VHH (VHH)
VHH: EVQLVESGGGLVQAGGSLRLSCAASGFTFSNYAMNWVRQAPGKGLEWVSGISGRGDDTRYADSVKGRFTISRDNAKNTLFLQMRSLRPEDTGVYRCTKGPDLYYFGSGYSDRGQGTQVTVSS
B10 came in with a concentration for a half-maximal effect (EC50) in [10] of 0.2 nM. The MN100 in [3] amounted to 1.25 nM. In assay [11], this molecule registered a concentration for half-maximal inhibition (IC50) of 5.1 nM, a 99% effect concentration (IC99) of 15.5 nM and an Imax % of 100%.

B11: NRCoV2-02 VHH (VHH)
VHH: EVQLVESGGGLVQAGGSLRLSCAASGFTFSNYAMNWVRQAPGKGLEWVSGISGRGDDTRYADSVKGRFTISRDNAKNTLFLQMRSLRPEDTGVYRCTKGPDLYYFGSGYSDRGQGTQVTVSS
For the molecule B11, the binding result in [16] is recorded as “no binding (tested: 10 nM)”. Further, the “End 1st inj (RU)” value in [17] was found to be 33 RU.

B12: NRCoV2-04 VHH-Fc (Fc fusion)
chain: AVQLVDSGGGLVQPGGSLRLSCAASGSPFSNVVMAWYRQAPGKQRERVAFISGGGIADYIMSVKGRFTISRDNAKNTVYLQMNSLKPEDTAVYYCWSSYESTWGQGTQVTVSS
notes: bivalent VHH-Fc
On to B12, for which the concentration for half-maximal inhibition (IC50) in assay [1] is 11.7 nM. Further, in [1], the 99% effect concentration (IC99) turned out to be 420 nM. The same molecule yielded an Imax % in [1] of 51%. In assay [2], the “LVNA IC50” value was determined as 1.65 nM. The molecule further yielded an MN100 in [3] of 1.25 nM. In addition, the values for the Limit of detection in [4], in assay [5] and in assay [6] were 4.1 ng/mL, 0.46 ng/mL and 4.12 ng/mL, respectively. Moreover, the SC50 in assay [7] came out at 39 ng/mL; in assay [8], 3.3 ng/mL; in assay [9], 25 ng/mL.
